According to PMC10575594:

Experiments:
[1] = biological target: human 40S small ribosomal subunit (human) (UniProt P23396); assay: cryo-EM structure
[2] = biological target: Cy3-labeled human 40S subunit (human) (UniProt P62841); assay: FRET or BRET

“Bat-Hp-CoV Nsp1 wild type (natural protein)” gave a fraction of 40S complexes with density for the Nsp1 linker and NTD [1] of 15%.

With “Cy5-labeled Bat-Hp-CoV Nsp1 (natural protein)” the fraction of tethered 40S complexes that yielded FRET [2] was 10 to 20%, the koff [2] was < 0.01 s⁻¹ and the lifetime of the FRET signal [2] was > 100 s.
